The values that follow come from paper PMC6077248.

For the experiment, the target named is Venus-Gβ2γ7 (Venus 156-239-Gβ2 with Venus 1-155-Gγ7), P62879-1;O60262. The experiment is described as follows: BRET (suppression of GRK3ct-Gβ2γ7 BRET by competing Gαolf). Conditions: chain shown with the change; HEK293T/17 cells; parent: est. 100; read off a plot. In general terms: In BRET a luciferase serves as donor, and the signal depends on an acceptor being close.

B1: G protein α subunit Gαolf, wild type, P38405 P102_V104del (protein)
chain: MGCLGGNSKTTEDQGVDEKERREANKKIEKQLQKERLAYKATHRLLLLGAGESGKSTIVKQMRILHVNGFNPEEKKQKILDIRKNVKDAIVTIVSAMSTIIPLANPENQFRSDYIKSIAPITDFEYSQEFFDHVKKLWDDEGVKACFERSNEYQLIDCAQYFLERIDSVSLVDYTPTDQDLLRCRVLTSGIFETRFQVDKVNFHMFDVGGQRDERRKWIQCFNDVTAIIYVAACSSYNMVIREDNNTNRLRESLDLFESIWNNRWLRTISIILFLNKQDMLAEKVLAGKSKIEDYFPEYANYTVPEDATPDAGEDPKVTRAKFFIRDLFLRISTATGDGKHYCYPHFTCAVDTENIRRVFNDCRDIIQRMHLKQYELL
As for B1, the percent of parent worked out at 29%.
